test: yeast display, Sf9 membrane polyspecificity reagent, FACS + sequencing; frameworks hold sequencing errors
Summary of the method: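 Synthetic nanobody libraries on Saccharomyces cerevisiae BJ5465 were galactose-induced for 36–48 hours, stained 1 hour at 4 °C with 10% biotinylated, detergent-solubilized Sf9 membrane reagent and enriched on streptavidin microbeads. FACS then separated cells into low and high (top ~1%) gates by anti-HA (expression) and streptavidin (reagent binding) fluorescence. Genes were colony-PCR amplified, MiSeq 2 × 250 sequenced and CDR-length filtered. A clone's polyreactivity label is that of its gate of origin.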

Sequence | polyreactivity (PSR sort gate)
QVQLVESVGGLVQAGGSLRLSCAASGSIFQPYAMGWYRHAPGKEREFVAAISRSGGITYYADSVKGRFTISRDNAKNTVYLQMNSLKPEDTAVYYCATGRQVVRSYSEGDYCGQGTQVTVSS | low polyreactivity
QVQLVESVGGLVQAGGSLRLSCAASGSIFSYYAMGWYRQAPGKERELVAAITISGSSTYYADSVKGRFTISRDNAKNTVYLQMNSLKPEDTAVYYCNARTIRNWSGQHIYDYWGQGTQVTVSS | high polyreactivity
QVQLVESVGGLVQAGGSLRLSCAASGSIFVKYAMGWYRQAPGKECEMVPAISGSGGSTYYADSVKGRFTISRDNAKNTVYLQMNSLKQEDTAVYYCAADDYFYAGTLPGWWYDYWGQGTQVTVSS | low polyreactivity
QVQLVESVGGLVQAGGSLRLSCAASGSIFVRNAMGWYRQAPGKERELVAGISRSGGSTNYADSVKGRFTISRDNAKNTVYLQMNSLKPEDTAVYYCAASRLVWVGRPWYQVRGDYWGQGTHVTVSS | high polyreactivity
QVQLVESVGGLVQAGGSLRLSCAASGSIFYYNTMGWYRQAPGKVRELVATISSDGGTNYADSVKGRFTISRDNAKNTVYLQMNSLKPEDTAVYYCAAAVSPYSYWPGFDYWGQGTQVTVSS | low polyreactivity
QVQLVESVGGLVQAGGSLRLSCAASGSMFKVYAMGWYRQAPGKEREFVAAITSSDSNTNYADSVKGRFTISRDNAKNTVYLQMNSLKPEDTAVYYCNKDGGGDSYWYDYWGQGTQVTVSS | low polyreactivity
QVQLVESVGGLVQAGGSLRLSCAASGSNFGSYAMGWYRQAPGKERSTYYADSVKGRFTISRDNAKNTVYLQMNSLKPEDTAVYYCAADTYGYQGSAGGHWGQGTQVTVSS | low polyreactivity
QVQLVESVGGLVQAGGSLRLSCAASGSTFAFNAMGWYRQAPGKEREFVAAITWRGGSTYYADSVKGRFTISRDNAKNTVYLQMNSLKPEDTAVYYCARRPGYALTWRVSGRYDYWGQGTQVTVSS | high polyreactivity
QVQLVESVGGLVQAGGSLRLSCAASGSTFKAYAVGWYRQAPGKEGELVAAITKSGGRTYYADSVKGRFTISLDNAKNTVYLQMNSLKPEDTAVYYCAAVFRPDSSAFRYYYWGQGTQVTVSS | high polyreactivity
QVQLVESVGGLVQAGGSLRLSCAASGSTFVDYAMGWYRQAPGKERELVAGINGSGGSTYYADSVKGRFTISRDNAKNTVYLQMNSLKPEDTAVYYCNARNPWRKRSQGYSWGQGTQVTVSS | low polyreactivity
QVQLVESVGGLVQAGGSLRLSCAASGSTFYRYAMGWYRQAPGKERELVAAISSDGTTYYADSVKGRFTISRDNAKNTVYLQLNSLKPEDTAVYYCAKRGYYRSRRYDYWGQGTLVTVSS | high polyreactivity
QVQLVESVGGLVQAGGSLRLSCAASGSTYDHNAMGWSRHAPGKERELVAAISSDGSTNYADSVKGRFTISRDNAKNTVYLQMNSLKPEDTGVYYCNADGVYLGDYEYWGQGTQVTVSS | low polyreactivity
QVQLVESVGGLVQAGGSLRLSCAASGSTYPYYAMGWYRQAPGKERELVAASTSGGSTNYADSVKGRFTISRDNAKNTVYLQMNSLKPEDTSVYYCATDWSVDLWTWYYYWGQGTQVTVSS | high polyreactivity
QVQLVESVGGLVQAGGSLRLSCAASGYTFFYAMGWYRQAPGKERELVASITSAASTTYADSVKGRFTISRDNAKNTVYLQMNSLKPEDTAVYYCAASHSWWFYPGYYYWGQGTQVTVSS | high polyreactivity
QVQLVESVGGLVQAGGSLRLSCAASVRTFSSYAMGWYRKPPGKERELVAVITSGSSTHYADSVKGRFTISRDNAKNTVYLQMNSLKPEDTAVYYCAARDIREIDCISYWYDYWGQGTQVTVSS | high polyreactivity
QVQLVESVGGLVQAGGSLRLSCAASVYTFPRYTMGWYRQAPGKERELVAAINWSGGSTYYADSVKRRFTISRDNAKNTVYLQMNSLKPEDTAVYYCNKAYVSRYDYWGQGTQVTVSS | high polyreactivity
QVQLVESVGGLVQAGGSLRLSCAATGFILAPYAMGWYRQSPGKETELVAAITRSGGITYYADSVKGRFTISRDNAKNTVYLQMNSLKPEDTAVYYCAARNYRYRYARAYDYWGQGTQVTVSS | high polyreactivity
QVQLVESVGGLVQAGGSLRLSCASSGFIFATNTMGCYRQAPGKERALVAAMSRSGGSTYYADSVKGRFTISRDNAKNTVYLQMNSLKPEDTAVYYCAADVRLRSTRARFDYWGQGTQVTVSS | high polyreactivity
QVQLVESVGGLVQAGGSLRLSCDASGGIFWVYAMGWYRQAPGKERELVAAISNSDTSTSYADSVKGRFTISRDNAKNTVYLQMNSLKPEDTAVYYCNADSPSLSGDYWGQGTQVTVSS | low polyreactivity
QVQLVESVGGLVQAGGSLRLSCSASGITFSYNAMGWYRQAPGKERELVAAISDIGGSTYYADSVKGRFTISRDNAKNTVYLQMNSLKPEDTAVYYCAADEYYQDEYDYWGQGTQVTVSS | low polyreactivity
QVQLVESVGGLVQAGGSLRLSCSASGSIIYSYAMGWYRQAPGKERELVADITTGGGSTYYADSVKGRFTISRDNAKNTVYLQMNSLKPEDTAVYYCAAEQDTVWFLWIVDYCGQGTQVTVSS | low polyreactivity
QVQLVESVGGLVQAGGSLRLSSAASGLIFDVYPMGWYSQGPGKERELVAAISTSGGRTYYADSVKGRFTISRDNAKNTVYLQMTSLKPEDTAVYYCAAVSPHNRYGYKYDYWGQGTQVTVSS | high polyreactivity

Sequence | polyreactivity (PSR sort gate)
QVQLVESVGGLVQAGGSLRLSSAASGRTFKGNAMGCYSQAHGKERELVAVITGSGGSTYYADSVKGRFTISRDNAKNTVYLQMNSLKPEDTAVYYCNKKLQRRSWYVYWGLGTQVTVSS | low polyreactivity
QVQLVESVGGLVQAGGSLRLSSAASGRTFYFYTMGWYTQAPGKERELVATIRWSAGSTYYADSVKGRFTISRDNAKNTVYLQMNSLKPEDTAVYYCNADPYVYSSWQYGYWGQGTQVTVSS | high polyreactivity
QVQLVESVGGLVQAGGSLRLSSAASGRTSWYYAMGWYRQAPGKERELVATITRTTGSTYYADSVKGRFTISRDNAKNTVYLQMNSLKPEDTAVYYCDRLYYFNGDYWGLGTQVTVSS | high polyreactivity
QVQLVESVGGLVQAGGSLRLSSSASGSNCVLNAIGWYRQAPGKEWELVAAITKVGSTYYADSVKGRFTISRDNAKNTVYLQMNSLIPEDTAVYYCNADPGEVLVGYDYWGQGTQVTVSS | low polyreactivity
QVQLVESVGGLVQAGVSLRLSCAASGRIFGRYPMGWYRQAPGKERELVAAISFNGGSTSYADSVKGRFTISRDNAKNTVYLQMNSLKQEDTAVYYCAAKYRGFNYWGQGTQVTVSS | high polyreactivity
QVQLVESVGGLVQEGGSLRLSCAASGFTFAFYAMGWYRQAPGKERELVAAMTRSGGSTYYADSVKGRFTISRDNAKNTVYLQMNSLKPEDTAVYYCAAVISRWGRSTYDYWGQGTQVTVSS | high polyreactivity
QVQLVESVGGVVQAGGSLRLSCAASGRIFDRNAKGWYSQAPGKERELVAAITSGGSTNYADSVKGRFTISRDNAKNTVYLQMNSLKPEDTAVYYCANDFTSRYAPPEAYDYWGQGTQVTVSS | low polyreactivity
QVQLVESVGRLVQAGGSLRLSCAASGFIFIFYTMGWYRHAPGKERELVASITSSGGSTYYADSVKGRFTISRDNAKNTVYLQMNSLNPEDTAVYYCAAKKYRSPRGYWGLGTQVTVSS | high polyreactivity
QVQLVESVGRLVQAGGSLRLSCAASGIIFSVNAMGWYRQAPGKERELVAAITYSGGSTYYADSVKGRFTISRDNAKNTVYLQMNSLKPEDTAVYYCATSYYSSGTWSEYYYWCQGTQVTVSS | high polyreactivity
QVQLVESVGVLVQAGGSLPLSCAASGFTFQQYAMGWYRQAPGKERELVAAISWSGGSTNYADSVKGRFTISRDNAKNTVYLQMNSMKPEDTAVYYCAAYLRYYRKEVGYSSMNYWGQGTQVTVSS | high polyreactivity
QVQLVESVGVLVQAGGSLRLSSAASGGILPRYAMGWYRQAPGKERELVAVITRGGSTYYADSVKGRFTISRDNAKNTVYLQMNSLKPEDNAVYYFAKYRYQTGIFYYWGQGTQVTVSS | high polyreactivity
QVQLVESVRGLVQAGGSLLLSCAASGITITHYDMGWYRHSSGKESELVAAITSSGRTYYADSVKGRFSLSRDNAKNTVYLQMNSLKPEDTAVYYCDAEHSWFYGLLGYWGQGTQVTVSW | high polyreactivity
QVQLVESVRGLVQAGGSLRLICDASGRTFPRYAKGWNRQAPGKEWEFVAAIRYSGDNTYYADSVKGRFTISRDNAKNTVYLQMNSLKPEDTAVYYCAARTYGNYRYSTYYYWGQGTQVTVSS | high polyreactivity
QVQLVESVRGLVQAGGSLRLSCAASGRILPSNAMGWYRQAPGKERELVAGITSGGSTDYADSVKGRFTISRDNAKNTVYLQMNSLKPEDTAVYYCNKPFPYYPDGPNGYDYWGQGTQVTVSS | low polyreactivity
QVQLVESVRGLVQAGGSLRVSCAASGRTFIVYAMGWYRQAPGKERELVAGITRGSTKYADSVKGRFTISRDNAKNTVYLQMNSLKPEDTAVYYCAGRSSRRGPISEGDYWGQGTQVTVSS | high polyreactivity
QVQLVESVVGLVQAGGSLRLSCAASGSIFIENTMGWYRQAPGKERELVAAISGSVGRTFYADSVKGRFTISRDNAKNTVYLQMNSLKPEDTAVYYCAAVRRTSPGWVYYWGQGTRVTVSS | high polyreactivity
QVQLVESVVGLVQAGVSLRLSCAASGSIFEQYAMGWYRQAPGKERELVAAISKRGTSTYYADSVKGRFTISRDNAKNTVYLQINSLKPEDNAVYDCAATNRWYYRAAASVYAFGYWGLGTQVTVSS | high polyreactivity
QVQLVESVVGLVQAVGTLRLSSAATGSTIYRNAMGWYRQPPGKEREFVAAISFRGGGTYADSVKGRFTISRDNAKNTVYLQMNSLKPEDTAVYYCAADHLSYRRRYEYWGQGTQVTVSS | low polyreactivity
QVQLVESVVGLVQSRVRHPLSCSASGIIFAQNAMGWYRQAPGKERELVARITSSGGGTNYADSVKGRFTISRDNAKNTVYLQMNSLKPEDTAVYYCATRWPYRSDWGQGTQVTVSS | high polyreactivity
QVQLVESWAGLVQAGGRLRLSCAASGSSFQVYAMGWYRQAPGKERELVAAISGDGGSTYYADSVKGRFTISRDNAKNTVYLQMNSLKPEDTAVYYCAARGLFRYTDYGYWGQGTQVTVST | low polyreactivity
QVQLVESWAGLVQAGGSLRLSCAASGIIFHFNDMGWYRQAPGKERELVAAITSGGSTNYADSVKARFTISRDNAKNNVYLQMNSLKPEDTAVYYCAARRGLRLFAYSHGYWGQGSQVTVSS | low polyreactivity

From the nanobody polyreactivity screen of Harvey et al. (2022)
